Data from US20250387474A1.

Legend:
[1] = biological target: human IL-13Rα1 (human) (UniProt P78552); experiment: SPR on immobilized ligands with receptors as flow analytes using MCK, top trace marked 1000 nM
[2] = biological target: human IL-13Rα2 (human) (UniProt Q14627); experiment: SPR on immobilized ligands with receptors as flow analytes using MCK, top trace marked 250 nM
[3] = biological target: human IL-13Rα2 (human) (UniProt Q14627); experiment: SPR, construct captured on anti-human IgG (Fc) antibody on a CM5 chip, human receptor as analyte
[4] = biological target: human IL-13Rα1 (human) (UniProt P78552); experiment: as above
[5] = biological target: T1, human IL-2R beta (CD122) (human) (UniProt P14784); experiment: BLI (Octet)
T1 sequence (looked up): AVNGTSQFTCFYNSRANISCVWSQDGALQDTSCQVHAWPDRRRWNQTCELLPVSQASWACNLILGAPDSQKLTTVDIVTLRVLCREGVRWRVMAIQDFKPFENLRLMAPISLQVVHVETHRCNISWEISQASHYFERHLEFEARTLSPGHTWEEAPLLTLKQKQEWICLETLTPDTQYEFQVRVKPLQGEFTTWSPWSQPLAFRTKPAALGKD

Sequence of human IL-13Rα1 (human) (P78552 22-343 limits assumed): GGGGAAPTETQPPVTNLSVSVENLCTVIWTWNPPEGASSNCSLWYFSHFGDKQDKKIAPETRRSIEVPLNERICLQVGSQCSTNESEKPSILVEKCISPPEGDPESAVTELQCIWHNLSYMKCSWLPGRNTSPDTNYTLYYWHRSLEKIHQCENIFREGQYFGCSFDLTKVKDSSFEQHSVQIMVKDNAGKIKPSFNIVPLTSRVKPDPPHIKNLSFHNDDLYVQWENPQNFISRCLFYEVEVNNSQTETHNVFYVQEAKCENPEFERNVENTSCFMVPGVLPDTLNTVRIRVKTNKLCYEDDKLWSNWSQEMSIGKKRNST
Sequence of human IL-13Rα2 (human) (Q14627 27-343 limits assumed): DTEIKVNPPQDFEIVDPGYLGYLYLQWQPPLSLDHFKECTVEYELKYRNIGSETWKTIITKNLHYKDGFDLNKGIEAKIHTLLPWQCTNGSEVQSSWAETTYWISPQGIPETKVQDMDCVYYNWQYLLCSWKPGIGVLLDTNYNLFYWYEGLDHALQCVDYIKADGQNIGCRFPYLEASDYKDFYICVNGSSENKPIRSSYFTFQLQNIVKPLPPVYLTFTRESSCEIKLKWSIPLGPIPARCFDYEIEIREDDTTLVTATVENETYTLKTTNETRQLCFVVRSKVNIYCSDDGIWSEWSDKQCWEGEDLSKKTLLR

Kd [1]	Kd [2]	Kd [3]	Kd [4]	Kd [5]	Substance
202 nM	0.69 nM	0.6 nM	237 nM		Fc-IL13 (wild-type IL-13 with Fc tag, comparator; format not stated) (Fc fusion)
				11 nM	MDNA11 (MDNA109FEAA-Albumin)
				7 nM	VivoTag800-MDNA11
